Molecular target: PD-1 expressed on Jurkat T cells (NFAT luciferase reporter) (human, UniProt Q15116 25-288)
Assay: cell-based or functional assay

Sequence of PD-1 expressed on Jurkat T cells (NFAT luciferase reporter) (Q15116 25-288): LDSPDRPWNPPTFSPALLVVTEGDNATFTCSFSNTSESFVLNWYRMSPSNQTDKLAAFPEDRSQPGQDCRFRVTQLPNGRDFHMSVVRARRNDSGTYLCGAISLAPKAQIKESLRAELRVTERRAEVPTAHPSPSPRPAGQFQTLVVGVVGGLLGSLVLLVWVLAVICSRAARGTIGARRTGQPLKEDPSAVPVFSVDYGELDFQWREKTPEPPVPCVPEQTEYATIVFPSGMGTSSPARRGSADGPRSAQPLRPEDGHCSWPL

EC50 of inhibition of PD-1 signaling (NFAT luciferase reporter in Jurkat T cells with PD-L1-expressing HEK293 cells): 0.38 µg/mL
B1: BPS hAb-10D3 humanized anti-PD-1 neutralizing antibody (antibody, V domains shown)
VH: QVQLQESGPGLVKPSQTLSLTCSVSGYSITSGYFWNWIRQFPGNKLEWIGYISYDGSKNYNPSLKNRVTIIRDTSKNQFSLKLNSVTAEDTATYYCVRGGLPVMDYWGQGTSVTVSS
VL: DIVMTQSPSSLALSVGEKATIQCKSSQSLLDDNNQKNYLAWYQQKPGQPPKLLIFFASTRESGVPDRFIGSGSGTDFTLTISSLQAEDLADYYCQQHYTTPYTFGGGTNVEIK

Reference: patent US20190016806A1 (BPS BIOSCIENCE, published 2019)
